# According to publication PMC12583987, “Impact of Hanks Kinase‐Dependent Phosphorylation of CodY on the Physiology and Virulence in Bacillus cereus” (MicrobiologyOpen, 2025):
# Legend:
# Assay in all cases: SEC; Superdex 75 column on an Akta Purifier, PBS 1x, 0.5 mL/min; 75 uL (about 150 ug) of each purified protein loaded individually; column calibrated with a low molecular weight kit; oligomer size from the elution volume
# [1] = molecular target: CodY-S215D (Bacillus cereus ATCC 14579), N-terminal (His)6-tagged (Bacillus cereus ATCC 14579) (UniProt Q819X8)
# [2] = molecular target: CodY-S215A (Bacillus cereus ATCC 14579), N-terminal (His)6-tagged (Bacillus cereus ATCC 14579) (UniProt Q819X8)
# [3] = molecular target: the molecule itself
molecule,measurement,setting,value
"CodY-S215D (Bacillus cereus ATCC 14579), N-terminal (His)6-tagged (from UniProt Q819X8 1-259) (natural protein)",stoichiometry N,[1],2
"CodY-S215A (Bacillus cereus ATCC 14579), N-terminal (His)6-tagged (from UniProt Q819X8 1-259) (natural protein)",stoichiometry N,[2],2
"CodY (Bacillus cereus ATCC 14579), N-terminal (His)6-tagged (natural protein, CodY, global transcriptional regulator of Bacillus cereus ATCC 14579; codY PCR-amplified from the chromosome with primers SAT31 + SAT32 and cloned in pQE-30; printed monomer Mw 29.8 kDa; also called CodY WT; wild-type CodY; source: E. coli M15 [pREP4], purified (Ni-NTA, desalted on PD10)) MELLAKTRKLNALLQSAAGKPVNFREMSDTMCEVIEANVFVVSRRGKLLGYAIHQQIENERMKQMLAERQFPEEYTQSLFNITETSSNLDVNSAYTAFPVENRELFGQGLTTIVPIVGGGERLGTLVLARLGQEFLDDDLILAEYSSTVVGMEILREKAEEIEEEARSKAVVQMAISSLSYSELEAIEHIFEELNGTEGLLVASKIADRVGITRSVIVNALRKLESAGVIESRSLGMKGTYIKVLNDKFLQELAKLKTN",stoichiometry N,[3],2
